This note sets out measurements from US20240299529A1.

For this assay, the target named is human immunoglobulin G (hIgG) (human). The experiment in a line: sandwich ELISA, hIgG coated on plate, CD64 titrated, monovalent fit.

The substance “Flag-CD64 (from UniProt P12314 16-374) (receptor)” had a dissociation constant (Kd) of 0.0536 nM.

On to “recombinant wild-type CD64 (from UniProt P12314 16-374) (receptor)”, for which the Kd stood at 0.0456 nM.
